PMC8409457 (2021)
Bridges are numbered along the chain shown (N, C = ends). Where no end group is shown, it is not given here.

Key:
[1] = biological target: T1, Bcl-2 (UniProt P10415 1-239); assay: FP
[2] = biological target: T1, Bcl-2; assay: SPR
[3] = biological target: MDM2 (UniProt Q00987 1-491); assay: FP; reduced
Chain of MDM2 (Q00987 whole entry): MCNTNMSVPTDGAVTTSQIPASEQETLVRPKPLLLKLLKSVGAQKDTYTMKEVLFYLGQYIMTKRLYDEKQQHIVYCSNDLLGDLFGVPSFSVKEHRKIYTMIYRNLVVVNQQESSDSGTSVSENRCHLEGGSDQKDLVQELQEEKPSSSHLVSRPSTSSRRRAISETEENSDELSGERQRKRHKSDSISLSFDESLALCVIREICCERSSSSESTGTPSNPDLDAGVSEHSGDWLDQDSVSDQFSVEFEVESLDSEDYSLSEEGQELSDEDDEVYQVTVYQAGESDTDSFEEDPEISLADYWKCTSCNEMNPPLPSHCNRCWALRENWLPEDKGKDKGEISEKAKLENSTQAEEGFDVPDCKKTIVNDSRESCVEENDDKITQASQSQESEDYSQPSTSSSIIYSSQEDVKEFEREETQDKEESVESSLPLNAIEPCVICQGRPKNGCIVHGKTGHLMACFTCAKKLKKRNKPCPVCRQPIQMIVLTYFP

T1 sequence (P10415 whole entry): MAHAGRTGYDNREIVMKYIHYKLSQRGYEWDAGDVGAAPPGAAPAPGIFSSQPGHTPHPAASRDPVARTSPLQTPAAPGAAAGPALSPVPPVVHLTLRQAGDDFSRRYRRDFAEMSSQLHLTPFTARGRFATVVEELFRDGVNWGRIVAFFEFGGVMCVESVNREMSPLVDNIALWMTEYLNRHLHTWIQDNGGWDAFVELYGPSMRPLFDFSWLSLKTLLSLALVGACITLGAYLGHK

Row | Binder | Ki [1] [nM] | koff [2] [s⁻¹] | Ki [3] [nM]
1 | GCMILLDTDIWCPCSHPYACPENICC (disulfide 12-26 (inferred); disulfide 14-20, 2-25) [oxidized peptide 16] | 770 | 0.0498 | 
2 | GCEKATESESPCPCIFPELCPWIVCC (cysteines reduced (no disulfide bonds)) [reduced linear peptide 15] |  |  | 1120
